The values below come from patent US20150065561A1 (GEORGIA STATE UNIVERSITY RESEARCH FOUNDATION, published 2015).

This experiment addresses T1, CYLD (UniProt Q9NQC7 1-956, limits assumed).
T1 construct: also called deubiquitinase CYLD; cylindromatosis
T1 sequence (looked up): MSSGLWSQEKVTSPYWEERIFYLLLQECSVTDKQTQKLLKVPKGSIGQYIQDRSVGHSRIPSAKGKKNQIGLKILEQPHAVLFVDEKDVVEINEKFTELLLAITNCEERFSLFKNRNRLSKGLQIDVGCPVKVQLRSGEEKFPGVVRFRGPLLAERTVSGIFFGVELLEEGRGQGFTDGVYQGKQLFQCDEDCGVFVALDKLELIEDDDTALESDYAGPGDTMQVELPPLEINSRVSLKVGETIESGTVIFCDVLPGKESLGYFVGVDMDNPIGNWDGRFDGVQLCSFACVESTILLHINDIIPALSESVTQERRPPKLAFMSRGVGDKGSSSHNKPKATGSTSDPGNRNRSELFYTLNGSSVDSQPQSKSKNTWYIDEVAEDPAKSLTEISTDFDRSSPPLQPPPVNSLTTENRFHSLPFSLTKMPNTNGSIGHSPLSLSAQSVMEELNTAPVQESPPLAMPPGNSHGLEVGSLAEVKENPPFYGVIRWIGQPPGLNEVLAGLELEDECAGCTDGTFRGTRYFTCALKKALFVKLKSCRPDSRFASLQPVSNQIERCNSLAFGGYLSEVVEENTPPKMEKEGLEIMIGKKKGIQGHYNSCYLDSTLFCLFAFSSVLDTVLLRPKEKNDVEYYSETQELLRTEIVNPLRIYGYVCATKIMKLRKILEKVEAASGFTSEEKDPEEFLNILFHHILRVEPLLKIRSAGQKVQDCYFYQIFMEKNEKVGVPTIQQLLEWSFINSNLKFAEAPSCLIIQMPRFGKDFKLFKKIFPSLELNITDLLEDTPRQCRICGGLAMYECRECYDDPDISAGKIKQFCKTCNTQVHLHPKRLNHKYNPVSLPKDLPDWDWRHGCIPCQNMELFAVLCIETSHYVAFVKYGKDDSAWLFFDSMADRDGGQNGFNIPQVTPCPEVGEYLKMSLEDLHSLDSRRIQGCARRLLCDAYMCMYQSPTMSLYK
As to the kind of experiment: co-immunoprecipitation.

Procedure: Western blot, immunoprecipitation and ubiquitination experiments were performed as follows. Western blots were performed using whole-cell extracts, separated on 8 or 10% SDS-PAGE gels, and transferred to polyvinylidine di& uoride membranes. The membrane was blocked with a solution of PBS containing 0.1% Tween 20 (PBS-T) and 5% BSA. The membrane was then incubated in a 1:2,000 dilution of a primary antibody in 5% BSA-PBS-T. After three washes in PBS-T, the membrane was incubated with 1:5,000 dilution of the corresponding secondary antibody in 3% non-fact skim milk-PBS-T. Respective proteins were visualized by using enhanced chemiluminescence detection reagents, according to the manufacturer's instructions. To conduct immunoprecipitation analysis, cell lysates were incubated with 1 μg of primary antibodies overnight, at 4° C., followed by 2-h incubation with protein A/G-agarose beads (Invitrogen). Immunoprecipitates were then suspended in a sample buffer, separated on 8% SDS-PAGE, transferred to polyvinylidine difluoride membrane, and detected by immunoblot analysis, as described above. […]

B1: CHIP (enzyme, UniProt Q9UNE7 1-303, looked up)
chain: MKGKEEKEGGARLGAGGGSPEKSPSAQELKEQGNRLFVGRKYPEAAACYGRAITRNPLVAVYYTNRALCYLKMQQHEQALADCRRALELDGQSVKAHFFLGQCQLEMESYDEAIANLQRAYSLAKEQRLNFGDDIPSALRIAKKKRWNSIEERRIHQESELHSYLSRLIAAERERELEECQRNHEGDEDDSHVRAQQACIEAKHDKYMADMDELFSQVDEKRKKRDIPDYLCGKISFELMREPCITPSGITYDRKDIEEHLQRVGHFDPVTRSPLTQEQLIPNLAMKEVIDAFISENGWVEDY
Consider B1, for which the binding result was “no binding”.
